Reference: paper PMC10687048

Molecular target: Chikungunya virus (CHIKV) nonstructural protein 1 (nsP1) H37A mutant (chikungunya virus)
Experiment: cryo-EM structure; nsP1-mut incubated with SAH and m7GpppAmU at 4 °C overnight; graphene-covered grids; refinement with C12 symmetry, 2.41 Å

Substance: Chikungunya virus (CHIKV) nonstructural protein 1 (nsP1) H37A mutant (enzyme)
- stoichiometry N: 12
